{"source": "patent US20050147610A1", "about": "(AbbVie / Abbott, published 2005)", "binders": {"B1": {"name": "351 (antibody, V domains shown)", "VH": "ZVQLVESGGGVVQPGRSLRLSCAASGFTFSHYGMHWVRQAPGKGLEWVAVISYDGRNKYYVDSVKGRFTISRDNSKNTLYLQMNSLRAEDTAVFYCAREKGGSGWPPFYYYYGMDVWGQGTTVTVSS", "VL": "DIVMTQTPLSLSVTPGQPASISCKSSQNLLYSDGETYLCWYLQKPGQPPQLLIYEVSNRFSGVPERFSGSGSGTDFTLKISRVEAEDVGIYYCMQNVQLPLTFGGGTRVEIKR"}, "B2": {"name": "2.5.1 (antibody, V domains shown)", "VH": "ZVQLVQSGTEVKKPGESLKISCKGSGYTVTSYWIGWVRQMPGKGLEWMGFIYPGDSETRYSPTFQGQVTISADKSFNTAFLQWSSLKASDTAMYYCARVGSGWYPYTFDIWGQGTMVTVSS", "VL": "not shown"}, "B3": {"name": "435 (antibody, V domains shown)", "VH": "ZLQLQESGPGLVKPSETLSLTCTVSGGSIDSRIYYWGWIRQPPGKGLEWIGSIYYRGSTYYNPSLKSRVTISVDTPKNQFSLKLNSVTAADTAVYYCAREDSSAWVFDYWGQGTLATVSS", "VL": "EIVLTQSPGTLSLSPGERATLSCRASQSVRNNYLNWYQQKPGQAPRLLIYGAFSRATGIPDRFSGSGSGTDFTLTISSLEPEDFVVYYCQQYGNSIDSFGQGTKLEINR"}, "B4": {"name": "2.13.1 (antibody, V domains shown)", "VH": "ZVQLQESGPGLVTPSQTLSLTCTVSGGSISSGGHYWTWIRQHPGKGLEWIGYIYYSGSTYYNPSLKSRLTISVDTSKNQFSLKLSSVAAADTAVYYCARDRGGSGSYWDYWGQGTLVTVSS", "VL": "EIVLTQSPGTLSLSPGERATLSCRGSRSVSSGYLAWYQQKPGQAPRLLIYGVSIRATGIPDRFSGSGSGTDFTLTISRLEPEDFAVYYCQQYHGSPLTFGGGTKVEIKR"}, "B5": {"name": "2.13.1(E)wtg1 (antibody, V domains shown)", "VH": "B4 VH with Z1E", "VL": "B4 VL"}, "B6": {"name": "215 (antibody, V domains shown)", "VH": "ZVQLQESGPGLVKPSQTLSLTCTVSGGSINSGDYYWSWIRQHPGKGLEWIGHISYRGTTYYNPSLKSRVTISVDTSKNQFSLKLSSVTAADTAVYCCARDRGGGFFDLWGRGTLVTVSS", "VL": "B4 VL with G25A, V29L, V52A, G69A, H93N, G94Y, K104R, K108N"}, "B7": {"name": "IL-18BP-Fc (Fc fusion, UniProt O95998 31-194, looked up, not shown: a dimerising Fc or GST)", "chain": "TPVSQTTTAATASVRSTKDPCPSQPPVFPAAKQCPALEVTWPEVEVPLNGTLSLSCVACSRFPNFSILYWLGNGSFIEHLPGRLWEGSTSRERGSTGTQLCKALVLEQLTPALHSTNFSCVLVDPEQVVQRHVVLAQLWAGLRATLPPTQEALPSSHSSPQQQG"}, "B8": {"name": "413 (antibody, V domains shown)", "VH": "ZTQLQESGPGLVKPSETLSLTCTVSGGSISSRVYYWGWIRQPPGKGLEWIGSIYYSGSTYYSPSLKSRVTISVDTSKNQFSLKLSSVTAADTAIYYCAREDSSAWVFEHWGQGTLVTVSS", "VL": "EIVLTQSPDTLSLSPGERATLSCRASQILSRNYLAWYQQKPGQAPRLLIYGISIRATGIPDRFSGSGSGADFTLTINRLEPEDFAVYYCQHYDNSLCSFGQGTKLEVKR"}}, "key": {"[1]": {"molecular_target": "T1, NEM-huIL-18 (recombinant mature human IL-18 treated with N-ethyl maleiamide) (human, UniProt Q14116 37-193, cysteines protected with N-ethyl maleiamide (NEM))", "test": "cell-based or functional assay"}, "125I labeled rhu-IL-18 [2]": {"molecular_target": "T2, 125I labeled rhu-IL-18 (human, UniProt Q14116 37-193, NEM-treated cysteines; 125I label on lysine residues)", "test": "RBA: inhibition of 125I-rhu-IL-18 binding to IL-18Rαβ on KG-1 cells"}, "[3]": {"molecular_target": "T3, natural human IL-18 (endogenous, human whole blood) (human, UniProt Q14116 37-193)", "test": "cell-based or functional assay"}, "[4]": {"molecular_target": "T1, NEM-huIL-18 (recombinant mature human …)", "test": "cell-based or functional assay", "remark": "listed apart in the source"}, "[5]": {"molecular_target": "T1, NEM-huIL-18 (recombinant mature human …)", "test": "Biacore, NEM-cys protected rhuIL-18"}, "125I labeled rhu-IL-18 [6]": {"molecular_target": "T2, 125I labeled rhu-IL-18", "test": "RBA: inhibition of 125I-rhu-IL-18 binding to IL-18Rαβ on KG-1 cells", "remark": "listed apart in the source"}, "[7]": {"molecular_target": "T3, natural human IL-18 (endogenous, human …)", "test": "cell-based or functional assay", "remark": "listed apart in the source"}, "[8]": {"molecular_target": "recombinant mature human IL-18 (preparation not specified) (human, UniProt Q14116 37-193)", "test": "cell-based or functional assay"}}, "note": "Where a chain is given by its changes, count along the chain named. Values joined by “and” are separate entries in the source; they are usually repeats but may differ in a detail not shown here. Equal entries are not always repeated. Where two headings read alike, the source gives them in different places."}
{"binder": "B1", "values": [{"measurement": "KG-1 Assays (IC50, M), NEM-rhuIL-18", "setting": "[1]", "value": "2e-10", "unit": "M"}]}
{"binder": "B2", "values": [{"measurement": "KG-1 Assays (IC50, M), NEM-rhuIL-18", "setting": "[1]", "value": "3e-10 M and 4e-10 M"}]}
{"binder": "B3", "values": [{"measurement": "KG-1 Assays (IC50, M), NEM-rhuIL-18", "setting": "[1]", "value": "8e-10 M and 7e-10 M and 4e-10 M"}]}
{"binder": "B4", "values": [{"measurement": "KG-1 Assays (IC50, M), NEM-rhuIL-18", "setting": "[1]", "value": "2e-10 M and 1e-10 M and 7e-11 M"}]}
{"binder": "B5", "values": [{"measurement": "IC50", "setting": "125I labeled rhu-IL-18 [2]", "value": 200, "unit": "pM"}, {"measurement": "WBA (IC50, nM)", "setting": "[3]", "value": 2, "unit": "nM"}, {"measurement": "KG-1 (IC50, nM)", "setting": "[4]", "value": 0.12, "unit": "nM"}, {"measurement": "Kd", "setting": "[5]", "value": 200, "unit": "pM"}]}
{"binder": "B6", "values": [{"measurement": "KG-1 Assays (IC50, M), NEM-rhuIL-18", "setting": "[1]", "value": "1e-10 M and 3e-10 M"}]}
{"binder": "B7", "values": [{"measurement": "IC50", "setting": "125I labeled rhu-IL-18 [6]", "value": 1000, "unit": "pM"}, {"measurement": "WBA, Neutralization Potency in vitro (IC50, nM)", "setting": "[7]", "value": 5.7, "unit": "nM"}, {"measurement": "KG-1, Neutralization Potency in vitro (IC50, nM)", "setting": "[8]", "value": 0.03, "unit": "nM"}]}
{"binder": "B8", "values": [{"measurement": "KG-1 Assays (IC50, M), NEM-rhuIL-18", "setting": "[1]", "value": "1e-09 M and 7e-10 M"}]}
